In PMC10261145, “Ceramide sensing by human SPT-ORMDL complex for establishing sphingolipid homeostasis” (Nature Communications, 2023):
Residue numbers refer to the chain shown, from its start. Names and notes keep the numbering of the source.

Tests used:
[1] = substrate: CCCCCCCCCCCCCCCC(=O)SCCNC(=O)CCNC(=O)[C@H](O)C(C)(C)COP(=O)(O)OP(=O)(O)OC[C@H]1O[C@@H](n2cnc3c(N)ncnc32)[C@H](O)[C@@H]1OP(=O)(O)O; assay: DTNB CoA-release assay; allosteric sigmoidal fit; type: biochemical, Homo sapiens; details: 10 mM L-serine, 25 μM PLP, pH 7.5, 37 °C
Excerpt: DTNB CoA-release assay; allosteric sigmoidal fit on SPT-ORMDL3 complex | increased Khalf for palmitoyl-CoA in the ORMDL3-containing complex (Fig. 1e)

[2] = substrate: N[C@@H](CO)C(=O)O; assay: purified protein; details: 100 μM palmitoyl-CoA, 25 μM PLP, pH 7.5, 37 °C
[3] = substrate: CCCCCCCCCCCCCCCC(=O)SCCNC(=O)CCNC(=O)[C@H](O)C(C)(C)COP(=O)(O)OP(=O)(O)OC[C@H]1O[C@@H](n2cnc3c(N)ncnc32)[C@H](O)[C@@H]1OP(=O)(O)O; assay: DTNB CoA-release assay; allosteric sigmoidal fit; type: biochemical, Homo sapiens; details: 10 mM L-serine, 25 μM PLP, pH 7.5, 37 °C; remark: listed apart in the source
[4] = substrate: CCCCCCCCCCCCCCCC(=O)SCCNC(=O)CCNC(=O)[C@H](O)C(C)(C)COP(=O)(O)OP(=O)(O)OC[C@H]1O[C@@H](n2cnc3c(N)ncnc32)[C@H](O)[C@@H]1OP(=O)(O)O; assay: DTNB CoA-release assay; allosteric sigmoidal fit; type: biochemical, Homo sapiens; details: 10 mM L-serine, 25 μM PLP, pH 7.5, 37 °C; remark: listed apart in the source
Excerpt: DTNB CoA-release assay; allosteric sigmoidal fit on SPT-ORMDL3 complex | Khalf value of this variant toward palmitoyl-CoA was nearly two times as high

[5] = substrate: CCCCCCCCCCCCCCCC(=O)SCCNC(=O)CCNC(=O)[C@H](O)C(C)(C)COP(=O)(O)OP(=O)(O)OC[C@H]1O[C@@H](n2cnc3c(N)ncnc32)[C@H](O)[C@@H]1OP(=O)(O)O; assay: DTNB CoA-release assay; allosteric sigmoidal fit; type: biochemical, Homo sapiens; details: 10 mM L-serine, 25 μM PLP, pH 7.5, 37 °C; remark: listed apart in the source
Excerpt: DTNB CoA-release assay; allosteric sigmoidal fit on SPT complex | SPT activity versus palmitoyl-CoA concentration for SPT and SPT-ORMDL3 complex

[6] = biological target: T1, SPTLC1 (human, UniProt O15269 1-473); assay: cryo-EM structure; single-particle cryo-EM of co-expressed and co-purified SPT-ORMDL3 complexes at ~18 mg/ml in 25 mM HEPES pH 7.5, 150 mM NaCl, 0.01% GDN; apo, or WT preincubated with 1 mM C6-ceramide on ice for 1 hr; details: both partners purified
T1 construct: serine palmitoyltransferase subunit SPTLC1, human, codon-optimized full-length cDNA; source: HEK293F, transiently co-transfected with the other subunits, purified as a complex (anti-Flag resin, SEC, GDN)
T1 sequence (looked up): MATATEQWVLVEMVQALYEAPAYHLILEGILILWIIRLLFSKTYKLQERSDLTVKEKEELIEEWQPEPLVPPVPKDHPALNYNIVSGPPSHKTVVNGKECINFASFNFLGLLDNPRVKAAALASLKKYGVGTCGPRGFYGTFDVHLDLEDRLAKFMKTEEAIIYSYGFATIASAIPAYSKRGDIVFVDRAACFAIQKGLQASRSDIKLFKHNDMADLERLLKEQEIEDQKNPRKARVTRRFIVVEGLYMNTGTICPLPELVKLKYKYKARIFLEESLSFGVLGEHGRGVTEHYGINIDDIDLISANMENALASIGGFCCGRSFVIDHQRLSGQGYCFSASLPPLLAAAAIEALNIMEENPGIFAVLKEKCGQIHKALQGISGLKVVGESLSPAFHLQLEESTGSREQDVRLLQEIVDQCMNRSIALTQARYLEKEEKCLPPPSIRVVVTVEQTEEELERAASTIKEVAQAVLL

[7] = biological target: T2, serine palmitoyltransferase (SPT) complex (SPTLC1, SPTLC2, SPTssa) (human, UniProt O15269 1-473; O15270 1-562; Q969W0 1-71); assay: as above; details: both partners purified
T2 construct: SPTLC1, human, codon-optimized full-length cDNA; SPTLC2, human, codon-optimized full-length cDNA; SPTssa, human, codon-optimized full-length cDNA; Also purified alone, without ORMDLs; also called WT SPT complex; source: HEK293F, transiently co-transfected, purified (anti-Flag resin, SEC, GDN); copies: + +
T2 sequence (looked up) 1: T1 sequence (looked up)
T2 sequence (looked up) 2: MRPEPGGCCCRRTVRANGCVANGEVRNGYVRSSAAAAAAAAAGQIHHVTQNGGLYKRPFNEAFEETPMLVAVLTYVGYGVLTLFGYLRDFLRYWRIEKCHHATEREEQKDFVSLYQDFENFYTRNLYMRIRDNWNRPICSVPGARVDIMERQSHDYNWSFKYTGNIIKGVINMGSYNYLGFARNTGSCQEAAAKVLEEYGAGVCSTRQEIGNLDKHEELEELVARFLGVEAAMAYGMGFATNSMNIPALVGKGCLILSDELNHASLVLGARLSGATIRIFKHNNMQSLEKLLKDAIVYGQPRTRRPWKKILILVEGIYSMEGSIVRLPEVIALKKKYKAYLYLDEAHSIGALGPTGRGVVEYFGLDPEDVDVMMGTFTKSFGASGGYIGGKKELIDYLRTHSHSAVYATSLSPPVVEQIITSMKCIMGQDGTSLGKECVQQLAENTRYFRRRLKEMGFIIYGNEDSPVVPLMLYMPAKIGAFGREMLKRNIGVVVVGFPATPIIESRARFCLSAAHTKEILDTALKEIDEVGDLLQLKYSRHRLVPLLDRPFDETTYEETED
T2 sequence (looked up) 3: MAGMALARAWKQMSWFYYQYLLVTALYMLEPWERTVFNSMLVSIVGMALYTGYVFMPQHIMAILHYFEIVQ

[8] = biological target: T3, SPTLC2 (human, UniProt O15270 1-562); assay: as above; details: both partners purified
T3 construct: serine palmitoyltransferase subunit SPTLC2, human, codon-optimized full-length cDNA; source: HEK293F, transiently co-transfected with the other subunits, purified as a complex (anti-Flag resin, SEC, GDN)
T3 sequence (looked up): T2 sequence (looked up) 2

[9] = biological target: the molecule itself; assay: as above

B1: SPT-ORMDL3 complex (Homo sapiens) (protein)
chain 1: MNVGTAHSEVNPNTRVMNSRGIWLSYVLAIGLLHIVLLSIPFVSVPVVWTLTNLIHNMGMYIFLHTVKGTPFETPDQGKARLLTHWEQMDYGVQFTASRKFLTITPIVLYFLTSFYTKYDQIHFVLNTVSLMSVLIPKLPQLHGVRIFGINKY
chain 2: T2 sequence (looked up) 2
chain 3: T1 sequence (looked up)
notes: full-length subunits (ORMDL3-FL) co-expressed in HEK293F; N-terminal Flag tag on a subunit; purified in GDN; dimer of heterotetrameric protomers; with Serine palmitoyltransferase small subunit A
B1 showed a K0.5 [1] of 26.85 ± 2.18 µM and a Km [2] of 1140 ± 70 µM.

B2: SPT-ORMDL3 (ORMDL3-ΔN17) (Homo sapiens) (protein)
chain 1: T1 sequence (looked up)
chain 2: T2 sequence (looked up) 2
notes: ORMDL3 lacking the N-terminal 16 residues (deletion 2-17, by analogy with the printed ΔN8 = 2-8); HEK293F; purified in GDN; with Serine palmitoyltransferase small subunit A; ORM1-like protein 3
For B2, the K0.5 [3] was 2.51 ± 0.33 µM.

B3: SPT-ORMDL3 complex (Homo sapiens; Q8N138:N13A) (protein)
chain 1: B1 chain 1 with N13A
chain 2: T2 sequence (looked up) 2
chain 3: T1 sequence (looked up)
notes: as for B1
B3 gave a K0.5 [4] of 8.05 ± 1.20 µM.

B4: SPT complex (Homo sapiens) (protein)
chain 1: T1 sequence (looked up)
chain 2: T2 sequence (looked up) 2
notes: core enzyme without ORMDL; full-length subunits co-expressed in HEK293F; N-terminal Flag tag on a subunit; purified in GDN; with Serine palmitoyltransferase small subunit A
B4 was tested, and the Km [2] was 1580 ± 130 µM and the K0.5 [5] was 4.47 ± 0.31 µM.

B5: ORMDL3 (full-length, wild type) (natural protein, human, UniProt Q8N138 1-153, looked up)
chain: B1 chain 1
notes: ORMDL3, human, codon-optimized full-length cDNA in pCAG (new ORMDL3-FL plasmid without the 14 extra nucleotides upstream of the ORF); cDNAs were cloned 'with an N-terminal Flag tag or without a tag'; also called ORMDL3-FL; WT ORMDL3; source: HEK293F, transiently co-transfected with the SPT subunits, purified as a complex (anti-Flag resin, SEC, GDN)
B5: binds [6]; binds [7]; binds [8].

B6: ORMDL3-N13A (natural protein, human, UniProt Q8N138 1-153, looked up)
chain: B1 chain 1 with N13A
notes: ORMDL3, human, full-length cDNA with N13A; also called ORMDL3-N13A mutant; source: HEK293F, transiently co-transfected with the SPT subunits, purified as a complex (anti-Flag resin, SEC, GDN)
B6: binds [7].

B7: ORMDL3-ΔN2 (deletion of the Asn2 residue) (natural protein, human, UniProt Q8N138 1-153, looked up)
chain: MVGTAHSEVNPNTRVMNSRGIWLSYVLAIGLLHIVLLSIPFVSVPVVWTLTNLIHNMGMYIFLHTVKGTPFETPDQGKARLLTHWEQMDYGVQFTASRKFLTITPIVLYFLTSFYTKYDQIHFVLNTVSLMSVLIPKLPQLHGVRIFGINKY
notes: ORMDL3, human, full-length cDNA with Asn2 deleted; also called ORMDL3-ΔN2 mutant; source: HEK293F, transiently co-transfected with the SPT subunits, purified as a complex (anti-Flag resin, SEC, GDN)
B7: binds [7].

B8: SPT-ORMDL3 complex (SPTLC1, SPTLC2, SPTssa, ORMDL3-FL) (complex, human)
chain 1: T1 sequence (looked up)
chain 2: T2 sequence (looked up) 2
chain 3: T2 sequence (looked up) 3
chain 4: B1 chain 1
notes: SPTLC1, human, codon-optimized full-length cDNA; SPTLC2, human, codon-optimized full-length cDNA; SPTssa, human, codon-optimized full-length cDNA; ORMDL3, human, codon-optimized full-length cDNA; One protomer; two protomers form the dimeric complex seen by cryo-EM; also called WT SPT-ORMDL3 complex; SPT-ORMDL3 protomer; source: HEK293F, transiently co-transfected, purified (anti-Flag resin, SEC, …)
For B8, the “stoichiometry N” value [9] was 2.

B9: SPT-ORMDL3 (ORMDL3-ΔN2) complex (complex, human)
chain 1: T1 sequence (looked up)
chain 2: T2 sequence (looked up) 2
chain 3: T2 sequence (looked up) 3
chain 4: B7 chain
notes: SPTLC1, human, codon-optimized full-length cDNA; SPTLC2, human, codon-optimized full-length cDNA; SPTssa, human, codon-optimized full-length cDNA; ORMDL3, human, full-length cDNA with Asn2 deleted; One protomer; also called ORMDL3-ΔN2 variant; ORMDL3-ΔN2 protomer; source: HEK293F, transiently co-transfected, purified (anti-Flag resin, SEC, GDN); copies: + + +
B9: binds [9].

B10: SPT-ORMDL3 (ORMDL3-N13A) complex (complex, human)
chain 1: T1 sequence (looked up)
chain 2: T2 sequence (looked up) 2
chain 3: T2 sequence (looked up) 3
chain 4: B1 chain 1 with N13A
notes: SPTLC1, human, codon-optimized full-length cDNA; SPTLC2, human, codon-optimized full-length cDNA; SPTssa, human, codon-optimized full-length cDNA; ORMDL3, human, full-length cDNA with N13A; One protomer; also called ORMDL3-N13A variant; ORMDL3-N13A protomer; source: HEK293F, transiently co-transfected, purified (anti-Flag resin, SEC, GDN); copies: + + +
B10: binds [9].
